From US20250154519

Tests used:
[1] = system: AceMYBS1 (Actinidia eriantha); assay: cell_activity; details: dual-luciferase, tobacco leaves
[2] = system: AceMYBS1 + AceGBF3 (Actinidia eriantha); assay: cell_activity; details: dual-luciferase, co-expression

Q: With AceGGP3 promoter (2.6 kb, P2660) as the substance, how does the activity [1] read?
A: Its activity is 3.74 fold.

Q: And the activity [2]?
A: The activity was 6.67 fold.
